Data on 22 molecules can be found in US20240287154A1, “MC3R AGONIST PEPTIDES” (The Regents of the University of Michigan, priority 2021, published 2024).

Non-standard residues stand in square brackets, D forms with d. Phe(4-I) = N[C@@H](Cc1ccc(I)cc1)C(=O)O; Nle = CCCC[C@H](N)C(=O)O; dAbu = CC[C@@H](N)C(=O)O; Aib = CC(C)(N)C(=O)O

The chains are these.
B1: CTX-1540 (peptide)
peptide: Ac-[Nle][dA]HFR[dW]G-NH2
SMILES: CCCC[C@H](NC(C)=O)C(=O)N[C@H](C)C(=O)N[C@@H](Cc1c[nH]cn1)C(=O)N[C@@H](Cc1ccccc1)C(=O)N[C@@H](CCCNC(=N)N)C(=O)N[C@H](Cc1c[nH]c2ccccc12)C(=O)NCC(N)=O
B2: CTX-1537 (peptide)
peptide: Ac-[Nle][dA]HFR[dW]DRAG-OH
SMILES: CCCC[C@H](NC(C)=O)C(=O)N[C@H](C)C(=O)N[C@@H](Cc1c[nH]cn1)C(=O)N[C@@H](Cc1ccccc1)C(=O)N[C@@H](CCCNC(=N)N)C(=O)N[C@H](Cc1c[nH]c2ccccc12)C(=O)N[C@@H](CC(=O)O)C(=O)N[C@@H](CCCNC(=N)N)C(=O)N[C@@H](C)C(=O)NCC(=O)O
B3: CTX-1131 (peptide)
peptide: H-YV[Nle][dAbu]HFR[dW]D-NH2
SMILES: CCCC[C@H](NC(=O)[C@@H](NC(=O)[C@@H](N)Cc1ccc(O)cc1)C(C)C)C(=O)N[C@H](CC)C(=O)N[C@@H](Cc1c[nH]cn1)C(=O)N[C@@H](Cc1ccccc1)C(=O)N[C@@H](CCCNC(=N)N)C(=O)N[C@H](Cc1c[nH]c2ccccc12)C(=O)N[C@@H](CC(=O)O)C(N)=O
B4: CTX-1548 (peptide)
peptide: H-YVMGRFR[dW]DRFG-OH
SMILES: CSCC[C@H](NC(=O)[C@@H](NC(=O)[C@@H](N)Cc1ccc(O)cc1)C(C)C)C(=O)NCC(=O)N[C@@H](CCCNC(=N)N)C(=O)N[C@@H](Cc1ccccc1)C(=O)N[C@@H](CCCNC(=N)N)C(=O)N[C@H](Cc1c[nH]c2ccccc12)C(=O)N[C@@H](CC(=O)O)C(=O)N[C@@H](CCCNC(=N)N)C(=O)N[C@@H](Cc1ccccc1)C(=O)NCC(=O)O
B5: CTX-1532 (peptide)
peptide: Ac-[Nle][dA]HFR[dW][Nle]RFG-OH
SMILES: CCCC[C@H](NC(C)=O)C(=O)N[C@H](C)C(=O)N[C@@H](Cc1c[nH]cn1)C(=O)N[C@@H](Cc1ccccc1)C(=O)N[C@@H](CCCNC(=N)N)C(=O)N[C@H](Cc1c[nH]c2ccccc12)C(=O)N[C@@H](CCCC)C(=O)N[C@@H](CCCNC(=N)N)C(=O)N[C@@H](Cc1ccccc1)C(=O)NCC(=O)O
B6: CTX-1541 (peptide)
peptide: Ac-[Nle][dA]HFR[dW]F-NH2
SMILES: CCCC[C@H](NC(C)=O)C(=O)N[C@H](C)C(=O)N[C@@H](Cc1c[nH]cn1)C(=O)N[C@@H](Cc1ccccc1)C(=O)N[C@@H](CCCNC(=N)N)C(=O)N[C@H](Cc1c[nH]c2ccccc12)C(=O)N[C@@H](Cc1ccccc1)C(N)=O
B7: CTX-1542 (peptide)
peptide: Ac-[Nle][dA]HFR[dW][dF]-NH2
SMILES: CCCC[C@H](NC(C)=O)C(=O)N[C@H](C)C(=O)N[C@@H](Cc1c[nH]cn1)C(=O)N[C@@H](Cc1ccccc1)C(=O)N[C@@H](CCCNC(=N)N)C(=O)N[C@H](Cc1c[nH]c2ccccc12)C(=O)N[C@H](Cc1ccccc1)C(N)=O
B8: CTX-1536 (peptide)
peptide: Ac-[Nle][dA]HFR[dW]DRPG-OH
SMILES: CCCC[C@H](NC(C)=O)C(=O)N[C@H](C)C(=O)N[C@@H](Cc1c[nH]cn1)C(=O)N[C@@H](Cc1ccccc1)C(=O)N[C@@H](CCCNC(=N)N)C(=O)N[C@H](Cc1c[nH]c2ccccc12)C(=O)N[C@@H](CC(=O)O)C(=O)N[C@@H](CCCNC(=N)N)C(=O)N1CCC[C@H]1C(=O)NCC(=O)O
B9: CTX-1142 (peptide)
peptide: H-[dY]V[Nle][dA]HFR[dW]D-NH2
SMILES: CCCC[C@H](NC(=O)[C@@H](NC(=O)[C@H](N)Cc1ccc(O)cc1)C(C)C)C(=O)N[C@H](C)C(=O)N[C@@H](Cc1c[nH]cn1)C(=O)N[C@@H](Cc1ccccc1)C(=O)N[C@@H](CCCNC(=N)N)C(=O)N[C@H](Cc1c[nH]c2ccccc12)C(=O)N[C@@H](CC(=O)O)C(N)=O
B10: CTX-1130 (peptide)
peptide: H-YV[Nle][Aib]HFR[dW]D-NH2
SMILES: CCCC[C@H](NC(=O)[C@@H](NC(=O)[C@@H](N)Cc1ccc(O)cc1)C(C)C)C(=O)NC(C)(C)C(=O)N[C@@H](Cc1c[nH]cn1)C(=O)N[C@@H](Cc1ccccc1)C(=O)N[C@@H](CCCNC(=N)N)C(=O)N[C@H](Cc1c[nH]c2ccccc12)C(=O)N[C@@H](CC(=O)O)C(N)=O
B11: CTX-1545 (peptide)
peptide: Ac-[Nle][Aib]H[Phe(4-I)]R[dW]G-NH2
SMILES: CCCC[C@H](NC(C)=O)C(=O)NC(C)(C)C(=O)N[C@@H](Cc1c[nH]cn1)C(=O)N[C@@H](Cc1ccc(I)cc1)C(=O)N[C@@H](CCCNC(=N)N)C(=O)N[C@H](Cc1c[nH]c2ccccc12)C(=O)NCC(N)=O
B12: CTX-1534 (peptide)
peptide: Ac-[Nle][dA]HFR[dW]DAFG-OH
SMILES: CCCC[C@H](NC(C)=O)C(=O)N[C@H](C)C(=O)N[C@@H](Cc1c[nH]cn1)C(=O)N[C@@H](Cc1ccccc1)C(=O)N[C@@H](CCCNC(=N)N)C(=O)N[C@H](Cc1c[nH]c2ccccc12)C(=O)N[C@@H](CC(=O)O)C(=O)N[C@@H](C)C(=O)N[C@@H](Cc1ccccc1)C(=O)NCC(=O)O
B13: CTX-1538 (peptide)
peptide: Ac-[Nle][dA]HFR[dW]DRFV-OH
SMILES: CCCC[C@H](NC(C)=O)C(=O)N[C@H](C)C(=O)N[C@@H](Cc1c[nH]cn1)C(=O)N[C@@H](Cc1ccccc1)C(=O)N[C@@H](CCCNC(=N)N)C(=O)N[C@H](Cc1c[nH]c2ccccc12)C(=O)N[C@@H](CC(=O)O)C(=O)N[C@@H](CCCNC(=N)N)C(=O)N[C@@H](Cc1ccccc1)C(=O)N[C@H](C(=O)O)C(C)C
B14: CTX-1533 (peptide)
peptide: Ac-[Nle][dA]HFR[dW]KRFG-OH
SMILES: CCCC[C@H](NC(C)=O)C(=O)N[C@H](C)C(=O)N[C@@H](Cc1c[nH]cn1)C(=O)N[C@@H](Cc1ccccc1)C(=O)N[C@@H](CCCNC(=N)N)C(=O)N[C@H](Cc1c[nH]c2ccccc12)C(=O)N[C@@H](CCCCN)C(=O)N[C@@H](CCCNC(=N)N)C(=O)N[C@@H](Cc1ccccc1)C(=O)NCC(=O)O
B15: CTX-1535 (peptide)
peptide: Ac-[Nle][dA]HFR[dW]DKFG-OH
SMILES: CCCC[C@H](NC(C)=O)C(=O)N[C@H](C)C(=O)N[C@@H](Cc1c[nH]cn1)C(=O)N[C@@H](Cc1ccccc1)C(=O)N[C@@H](CCCNC(=N)N)C(=O)N[C@H](Cc1c[nH]c2ccccc12)C(=O)N[C@@H](CC(=O)O)C(=O)N[C@@H](CCCCN)C(=O)N[C@@H](Cc1ccccc1)C(=O)NCC(=O)O
B16: CTX-1547 (peptide)
peptide: H-MGHFR[dW]DRFG-OH
SMILES: CSCC[C@H](N)C(=O)NCC(=O)N[C@@H](Cc1c[nH]cn1)C(=O)N[C@@H](Cc1ccccc1)C(=O)N[C@@H](CCCNC(=N)N)C(=O)N[C@H](Cc1c[nH]c2ccccc12)C(=O)N[C@@H](CC(=O)O)C(=O)N[C@@H](CCCNC(=N)N)C(=O)N[C@@H](Cc1ccccc1)C(=O)NCC(=O)O
B17: CTX-1543 (peptide)
peptide: Ac-[Nle][dA]H[Phe(4-I)]R[dW]G-NH2
SMILES: CCCC[C@H](NC(C)=O)C(=O)N[C@H](C)C(=O)N[C@@H](Cc1c[nH]cn1)C(=O)N[C@@H](Cc1ccc(I)cc1)C(=O)N[C@@H](CCCNC(=N)N)C(=O)N[C@H](Cc1c[nH]c2ccccc12)C(=O)NCC(N)=O
B18: CTX-1132 (peptide)
peptide: H-YV[Nle][dF]HFR[dW]D-NH2
SMILES: CCCC[C@H](NC(=O)[C@@H](NC(=O)[C@@H](N)Cc1ccc(O)cc1)C(C)C)C(=O)N[C@H](Cc1ccccc1)C(=O)N[C@@H](Cc1c[nH]cn1)C(=O)N[C@@H](Cc1ccccc1)C(=O)N[C@@H](CCCNC(=N)N)C(=O)N[C@H](Cc1c[nH]c2ccccc12)C(=O)N[C@@H](CC(=O)O)C(N)=O

In this test the target is human MC3R (human, UniProt P41968 1-323). Description: cell-based or functional assay.
Sequence of human MC3R (P41968 whole entry): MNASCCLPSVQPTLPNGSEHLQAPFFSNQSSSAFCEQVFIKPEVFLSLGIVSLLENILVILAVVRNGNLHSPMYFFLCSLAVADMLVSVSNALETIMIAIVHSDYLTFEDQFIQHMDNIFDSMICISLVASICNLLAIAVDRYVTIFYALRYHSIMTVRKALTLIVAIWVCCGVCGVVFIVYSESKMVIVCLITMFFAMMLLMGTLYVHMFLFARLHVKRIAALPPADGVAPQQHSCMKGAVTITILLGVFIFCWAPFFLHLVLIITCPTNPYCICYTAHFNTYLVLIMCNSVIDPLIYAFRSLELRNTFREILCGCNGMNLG
On to B1, for which the “MC3R cAMP (EC50)” value turned out to be 25.1 nM and the “MC3R selectivity (relative to MC4R)” value turned out to be 11.
B2: the “MC3R cAMP (EC50)” value amounted to 25.5 nM and the “MC3R selectivity (relative to MC4R)” value was 278.
For B3 the same measures were 6.6 nM and 65.
Regarding B4, the “MC3R cAMP (EC50)” value amounted to 3.8 nM and the “MC3R selectivity (relative to MC4R)” value was found to be 267.
In the case of B5, the “MC3R cAMP (EC50)” value turned out to be 10.3 nM and the “MC3R selectivity (relative to MC4R)” value came out at 184.
Regarding YVXGRFRWDRFG (Nle at 3; D-Trp at 8) [CTX-1549], the “MC3R cAMP (EC50)” value is 2.4 nM and the “MC3R selectivity (relative to MC4R)” value was determined as 102.
As for Ac-[Nle][dA]HFR[dW]-NH2 [CTX-1539], the “MC3R cAMP (EC50)” value is 47.1 nM and the “MC3R selectivity (relative to MC4R)” value amounted to 16.
B6: the “MC3R cAMP (EC50)” value stood at 65.2 nM and the “MC3R selectivity (relative to MC4R)” value worked out at 9.
The corresponding values for B7 are 64.6 nM and 15.
As for B8, the “MC3R cAMP (EC50)” value came to 73 nM and the “MC3R selectivity (relative to MC4R)” value was determined as 72.
Regarding YVXXHFRWDRFG (Nle at 3; Aib at 4; D-Trp at 8) [CTX-1134], the “MC3R cAMP (EC50)” value is 2.5 nM and the “MC3R selectivity (relative to MC4R)” value is 566.
With B9, the “MC3R cAMP (EC50)” value is 36 nM and the “MC3R selectivity (relative to MC4R)” value amounted to 54.
Turning to B10, the “MC3R cAMP (EC50)” value was found to be 26.5 nM and the “MC3R selectivity (relative to MC4R)” value came out at 58.
For the molecule B11, the “MC3R cAMP (EC50)” value was determined as 51.6 nM and the “MC3R selectivity (relative to MC4R)” value was 14.
As for B12, the “MC3R cAMP (EC50)” value stood at 38.8 nM and the “MC3R selectivity (relative to MC4R)” value stood at 186.
Consider B13, for which the “MC3R cAMP (EC50)” value worked out at 7.4 nM and the “MC3R selectivity (relative to MC4R)” value worked out at 1280.
Consider B14, for which the “MC3R cAMP (EC50)” value was 14.2 nM and the “MC3R selectivity (relative to MC4R)” value turned out to be 314.
For B15 the same measures were 6 nM and 1590.
As to B16, the “MC3R cAMP (EC50)” value is 1.5 nM and the “MC3R selectivity (relative to MC4R)” value turned out to be 54.
For H-VMGHFR[dW]DRFG-OH [CTX-1546] the same measures were 1.7 nM and 51.
For the molecule B17, the “MC3R cAMP (EC50)” value was determined as 3.1 nM and the “MC3R selectivity (relative to MC4R)” value was found to be 202.
Consider B18, for which the “MC3R cAMP (EC50)” value is 3.9 nM and the “MC3R selectivity (relative to MC4R)” value was 6.8.
